Ends that are not written are not given here.
What was measured:
[1] = biological target: T1, TLR4/MD-2 (Homo sapiens, UniProt O00206+Q9Y6Y9); test: ELISA: binding of TLR4/MD-2 to peptides immobilized on plate; settings: for binding to TLR4/MD-2 of alanine-substituted peptides: alanine scanning, amino terminus acetylated, carboxyl terminus amidated, immobilized on ELISA plate, FIG. 3
Experimental: Furthermore, for the purpose of narrowing the binding region with the TLR4/MD-2 complex, a peptide of 10 amino acids in the carboxyl terminal amino acid sequence was synthesized. At this time, the sequence can be comprehensively analyzed by overlapping by five amino acids. The synthesized peptides were immobilized on an ELISA plate (Thermo Fisher Scientific Inc.; Maxisorp), and then non-specific binding was blocked with a blocking buffer. Each well was washed with PBS-Tween 20 and then incubated with a high-purity human TLR4/MD-2 recombinant protein, then each well was incubated with an anti-TLR4 antibody (Abcam) and an anti-rabbit IgG-HRP labeled antibody (GE Healthcare), and finally a reaction with TMB as an HRP substrate was terminated with an equivalent of 1 N sulfuric acid. The amount of bound TLR4/MD-2 was quantified by measuring the absorbance at OD 450 nm.
In addition, acetylation was introduced at the amino terminus of these peptides, and amidation modification was introduced at the carboxyl terminus. These 10 peptides were immobilized on an ELISA plate (Thermo Fisher Scientific Inc.; Maxisorp) to verify binding with TLR4/MD-2.

[2] = biological target: T2, binding of S100A8 to TLR4/MD-2 complex (Homo sapiens, UniProt O00206+Q9Y6Y9); test: Competition ELISA: binding of S100A8 to TLR4/MD-2 complex; settings: for competitive inhibitory activity on binding of S100A8 to TLR4/MD-2 complex, candidate peptides: chain length screening candidates, FIG. 7(B); for competitive activity in competition assay, divalent and tetravalent peptides: FIG. 8
T2 sequence (O00206 24-631 limits assumed): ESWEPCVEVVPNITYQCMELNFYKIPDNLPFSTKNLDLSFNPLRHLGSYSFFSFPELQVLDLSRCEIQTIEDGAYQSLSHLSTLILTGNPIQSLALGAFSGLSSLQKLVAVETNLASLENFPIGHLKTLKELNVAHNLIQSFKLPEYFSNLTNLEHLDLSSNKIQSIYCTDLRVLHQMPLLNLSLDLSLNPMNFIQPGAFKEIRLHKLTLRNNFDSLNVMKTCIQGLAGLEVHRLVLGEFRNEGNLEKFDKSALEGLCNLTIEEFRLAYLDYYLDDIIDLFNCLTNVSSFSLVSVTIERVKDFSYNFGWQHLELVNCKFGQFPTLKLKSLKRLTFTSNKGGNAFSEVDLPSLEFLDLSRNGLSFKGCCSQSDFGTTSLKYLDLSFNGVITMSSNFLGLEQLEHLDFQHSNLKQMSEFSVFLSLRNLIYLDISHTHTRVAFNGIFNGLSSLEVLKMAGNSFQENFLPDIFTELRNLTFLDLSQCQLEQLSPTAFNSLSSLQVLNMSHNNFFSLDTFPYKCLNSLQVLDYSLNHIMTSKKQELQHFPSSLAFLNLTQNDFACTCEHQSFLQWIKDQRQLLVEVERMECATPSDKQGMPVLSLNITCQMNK
T2 sequence (Q9Y6Y9 19-160): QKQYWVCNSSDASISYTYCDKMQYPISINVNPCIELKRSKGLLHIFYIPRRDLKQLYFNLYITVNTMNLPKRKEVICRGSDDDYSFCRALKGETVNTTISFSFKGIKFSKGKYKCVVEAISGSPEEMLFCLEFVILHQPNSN
Experimental: Pre-purified S100A8 protein was immobilized on an ELISA plate. Non-specific binding was blocked with blocking buffer in the same manner as in Example 1. Peptides #1 to #6 were added simultaneously with TLR4/MD-2, and the mixture was reacted. Each well was washed with PBS-Tween 20, then incubated with an anti-TLR4 antibody (Abcam) and an anti-rabbit IgG-HRP labeled antibody (GE Healthcare) subsequently, and finally a reaction with TMB as an HRP substrate was terminated with an equivalent of 1 N sulfuric acid. Bound TLR4/MD-2 was quantified by measuring the absorbance at OD 450 nm.
(§1) In order to identify an essential region in the Peptide3A5 sequence, a series of partial sequence peptides based on the amino acid sequence of Peptide3A5, which were obtained by deleting the amino acid from the amino terminal side or the carboxyl terminal side, were spot-synthesized as divalent peptides on a cellulose membrane sheet using the method of Patent Literature 1. Several kinds of affinity peptides with high affinity to TLR4/MD-2 were obtained by reacting the sheet with TLR4/MD-2 (FIG. 7A). Candidate peptides were subjected to a competition assay similar to Example 1 (FIG. 2).
A competition assay was performed using divalent ILVIK (SEQ ID NO. 2), divalent Peptide3A5 (SEQ ID NO. 1), and tetravalent ILVIK. The tetravalent ILVIK was also synthesized using the method of Patent Literature 1.

[3] = biological target: T1, TLR4/MD-2; test: Chain length screening: divalent peptides spot-synthesized on cellulose membrane sheet reacted with TLR4/MD-2; format: binding; settings: FIG. 7(A)
From the text: as §1

[4] = biological target: T2, binding of S100A8 to TLR4/MD-2 complex; test: Competition by immunoprecipitation with anti-TLR4 antibody and Western blotting; settings: 10 times the molar amount of peptide; S100A8 detected by Western blotting; FIG. 2B
Experimental: The TLR4/MD-2 complex and S100A8 were mixed in a tube. At this time, 10 times the molar amount of each of Peptides #1 to #6 was added, and immunoprecipitation was performed with an anti-TLR4 antibody. The immunoprecipitate was washed several times with a washing buffer, and the final pellet was electrophoresed by SDS-PAGE. Then, S100A8 and TLR4 were detected by Western blotting using an anti-S100A8 antibody and an anti-TLR4 antibody.

[5] = tested on: SW480 cells subcutaneous tumor; test: Antitumor activity in SW480 xenograft model; format: in vivo; settings: mouse, two weeks
Experimental: First, two weeks after transplantation of SW480 cells subcutaneously in a mouse, the size of the subcutaneous tumor was measured, and confirmed to be equivalent tumor size. The peptide was administered to the abdominal cavity at the indicated concentrations twice a week, and the size of the tumor was measured over time. After two weeks, the size of the subcutaneous tumor was measured, and the subcutaneous tumor was collected.
The divalent ILVIK was identified as an S100A8-inhibiting peptide candidate by chain length screening, and influence of the divalent ILVIK on mouse subcutaneous tumors was examined in the same manner as in Example 5 (FIG. 6). First, two weeks after transplantation of SW480 cells subcutaneously in a mouse, the size of the subcutaneous tumor is measured, and confirmed to be equivalent tumor size. The peptide was administered to the abdominal cavity at the indicated concentrations twice a week, and the size of the tumor was measured over time. After two weeks, the size of the subcutaneous tumor was measured, and the subcutaneous tumor was collected.
First, two weeks after transplantation of SW480 cells subcutaneously in a mouse, the size of the subcutaneous tumor was measured, and confirmed to be equivalent tumor size. The tetravalent ILVIK was administered to the abdominal cavity at the indicated concentrations (1 mg/kg, 5 mg/kg, 10 mg/kg) twice a week, and the size of the tumor was measured over time. After two weeks, the size of the subcutaneous tumor was measured, and the subcutaneous tumor was collected.

[6] = tested on: IL-8 mRNA expression in human colorectal cancer SW480 cells; test: IL-8 mRNA induction by S100A8 in SW480 cells; format: cell-based; settings: SW480 cells pretreated with peptide, stimulated with S100A8 recombinant protein, after 5 hours; FIG. 4
Experimental: Human colorectal cancer SW480 cells express TLR4, and induce IL-8 by S100A8 stimulation. In order to verify inhibitory activity of peptides isolated so far, after pretreating divalent Peptide #3 or divalent Peptide3A5, the cells were stimulated with S100A8 recombinant protein, and the mRNA expression of IL-8 after 5 hours was analyzed. The divalent Peptide #3 and the divalent Peptide3A5 were prepared according to the method of Patent Literature 1 described above.

[7] = peptide to the abdominal cavity twice a week, FIG. 6, FIG. 9

T1 sequence (O00206 24-631 limits assumed): as the sequence (O00206 24-631 limits assumed) above
T1 sequence (Q9Y6Y9 19-160): as the sequence (Q9Y6Y9 19-160) above

Substance: FQEFAILVIK [Peptide3A5]
- binding to TLR4/MD-2 of alanine-substituted peptides [1]: higher affinity for TLR4/MD-2 than Peptide #3

Substance: Gln-Glu-Phe-Ala-Ile-Leu-Val (QEFAILV) [SEQ ID NO: 4]
- competitive inhibitory activity on binding of S100A8 to TLR4/MD-2 complex, candidate peptides [2]: competitive inhibitory activity
- affinity for TLR4/MD-2 of partial sequence peptides [3]: high affinity

Substance: Ile-Leu-Val-Ile-Lys (ILVIK) [SEQ ID NO: 2]
- competitive inhibitory activity on binding of S100A8 to TLR4/MD-2 complex, candidate peptides [2]: competitive inhibitory activity
- affinity for TLR4/MD-2 of partial sequence peptides [3]: high affinity

Substance: Peptide3A6: Peptide #3 (SEQ ID NO: 13) with position 6 from the N-terminal side substituted with alanine; acetylated amino terminus, amidated carboxyl terminus (Ac-FQEFLALVIK-NH2)
- binding to TLR4/MD-2 of alanine-substituted peptides [1]: reduced

Substance: Peptide3A7: Peptide #3 (SEQ ID NO: 13) with position 7 from the N-terminal side substituted with alanine; acetylated amino terminus, amidated carboxyl terminus (Ac-FQEFLIAVIK-NH2)
- binding to TLR4/MD-2 of alanine-substituted peptides [1]: reduced

Substance: Peptide3A8: Peptide #3 (SEQ ID NO: 13) with position 8 from the N-terminal side substituted with alanine; acetylated amino terminus, amidated carboxyl terminus (Ac-FQEFLILAIK-NH2)
- binding to TLR4/MD-2 of alanine-substituted peptides [1]: reduced

Substance: Peptide3A10: Peptide #3 (SEQ ID NO: 13) with position 10 from the N-terminal side substituted with alanine; acetylated amino terminus, amidated carboxyl terminus (Ac-FQEFLILVIA-NH2)
- binding to TLR4/MD-2 of alanine-substituted peptides [1]: reduced

Substance: Phe-Gln-Glu-Phe-Ala-Ile-Leu-Val-Ile (FQEFAILVI) [SEQ ID NO: 3]
- competitive inhibitory activity on binding of S100A8 to TLR4/MD-2 complex, candidate peptides [2]: competitive inhibitory activity
- affinity for TLR4/MD-2 of partial sequence peptides [3]: high affinity

Substance: Phe-Gln-Glu-Phe-Leu-Ile-Leu-Val-Ile-Lys (FQEFLILVIK) [Peptide #3]
- competitive inhibitory activity on the binding between S100A8 and the TLR4/MD-2 complex (ELISA) ([2]; S100A8 immobilized, peptide added simultaneously with TLR4/MD-2, FIG. 2A): found to have competitive inhibitory activity
- affinity for TLR4/MD-2 (amount of bound TLR4/MD-2, absorbance at OD 450 nm) ([1]; overlapping 10 amino acid peptides immobilized on ELISA plate, FIG. 1): high affinity for TLR4/MD-2
- competitive inhibitory activity on the binding of S100A8 to the TLR4/MD-2 complex (immunoprecipitation) [4]: had competitive inhibitory activity

Substance: divalent ILVIK: divalent peptide containing two ILVIK (SEQ ID NO. 2) sequences (also: divalent linkage of two copies (linker not given here))
- development of subcutaneous tumor (tumor size) [5, 7]: suppressed the development of mouse subcutaneous tumor in a concentration-dependent manner
- competitive activity in competition assay, divalent and tetravalent peptides [2]: almost similar competitive activity as the divalent Peptide3A5

Substance: divalent Peptide3A5: divalent peptide containing two Peptide3A5 (SEQ ID NO. 1) sequences, prepared according to the method of Patent Literature 1 (chain 1 FQEFAILVIK; chain 2 FQEFAILVIK; also: divalent linkage of two copies (linker not given here))
- development of subcutaneous tumor (tumor size) [5, 7]: suppressed the development of subcutaneous tumor in mice in a concentration-dependent manner
- competitive inhibitory activity, monovalent versus divalent ([2]; various concentrations added simultaneously with TLR4/MD-2 complex, FIG. 5): showed the competitive inhibitory activity at a lower concentration as compared with the monovalent type
- expression of mRNA of IL-8 induced by S100A8 [6]: remarkably inhibited

Substance: divalent Peptide #3: divalent peptide containing two Peptide #3 sequences, prepared according to the method of Patent Literature 1 (FQEFLILVIK)
- expression of mRNA of IL-8 induced by S100A8 [6]: remarkably inhibited

Substance: tetravalent ILVIK: tetravalent peptide containing four ILVIK sequences, synthesized using the method of Patent Literature 1
- development of subcutaneous tumor (tumor size) ([5]; 1 mg/kg, 5 mg/kg, 10 mg/kg to the abdominal cavity twice a week, FIG. 10): suppressed the development of mouse subcutaneous tumors in a concentration-dependent manner
- competitive activity in competition assay, divalent and tetravalent peptides [2]: almost the same competitive activity as the divalent ILVIK
